Molecular target: Trypsin (UniProt P00761)
Experiment: enzyme inhibition assay

| Ki | Substance |
| --- | --- |
| 0.102 nM | C12-EETI-II (lauroyl, C12:0, fatty acylated EETI-II) (peptide) |
| 0.1 nM | C14-EETI-II (myristoyl, C14:0, fatty acylated EETI-II) (peptide) |
| 0.132 nM | C16-EETI-II (palmitoyl, C16:0, fatty acylated EETI-II) (peptide) |
| 0.125 nM | C18-EETI-II (stearoyl, C18:0, fatty acylated EETI-II; octadecanedioic acid conjugate) (peptide) |

— publication PMC8529511
